Experimental data reported in PMC4058522, “Structural Basis for Phosphorylation-Dependent Recruitment of Tel2 to Hsp90 by Pih1” (Structure(London, England:1993), 2014).
Entries after “also recorded” stand apart in the source; their conditions may differ.

Tests used:
full-length Hsp90 dimer = assay: ITC, Spagh/RPAP3 binding to full-length Hsp90 dimer; conditions: 500 μM yeast Hsp90 into 20 μM Spagh/RPAP3^120–395, 10 mM Tris pH 7.5, 5 mM NaCl, ~1:2 molar ratio
Description: Heat of interaction was measured on an ITC200 microcalorimeter (Microcal) under the same buffer conditions (20 mM Tris, pH 7.5, containing 5 mM NaCl). Aliquots of the Tel2 peptides at 350 μM were injected into 30 μM of Pih1 at 30°C. Interactions with Tah1 or Spagh/RPAP3^120–395 were performed in 10 mM Tris pH 7.5 and 5 mM NaCl at 10°C and 30°C. Aliquots of 600 μM Tah1 were injected into 40 μM of yeast Hsp90, 400 μM of SRMEEVD injected into 30 μM Tah1, 301 μM yeast Hsp90 injected into 25 μM yeast Tah1-Pih1 complex, and 400 μM SRMEEVD injected into 30 μM yeast Tah1-Pih1 complex. For Spagh/RPAP3^120–395 experiments, aliquots of 500 μM yeast Hsp90 were injected into 20 μM Spagh/RPAP3^120–395 or 2 mM […] into 80 μM Spagh/RPAP3^120–395 or mutants (N172E, N321E, and N172E-N321E). Heats of dilution were determined by diluting injectant into buffer. Data were fitted using a curve-fitting algorithm (Microcal Origin). ATPase assays were previously described ([Prodromou et al., 1999]).

human Hsp90β = assay: Hsp90 ATPase assay, human Hsp90β; assay type: biochemical; conditions: 10 μM Hsp90β, 40 μM RPAP3; % maximum activity of wild type

B1: Spagh/RPAP3: tandem TPR region of human Spagh/RPAP3, residues 120–395 (protein)
chain: ESEEDGIHVDSQKALVLKEKGNKYFKQGKYDEAIDCYTKGMDADPYNPVLPTNRASAYFRLKKFAVAESDCNLAVALNRSYTKAYSRRGAARFALQKLEEAKKDYERVLELEPNNFEATNELRKISQALASKENSYPKEADIVIKSTEGERKQIEAQQNKQQAISEKDRGNGFFKEGKYERAIECYTRGIAADGANALLPANRAMAYLKIQKYEEAEKDCTQAILLDGSYSKAFARRGTARTFLGKLNEAKQDFETVLLLEPGNKQAVTELSKIKK
modifications: left off: GST, end not stated, state not stated
Kd (full-length Hsp90 dimer): 6.8 µM
effect on ATPase activity of human Hsp90β (in words) (human Hsp90β): failed to show any strong regulatory effect; also recorded: no major effect
